Measurements from US20190218304A1 (INNATE PHARMA, published 2019).

Biological target: T1, murine CD39 expressed on CHO cells (murine, UniProt P55772 1-510)
T1 construct: whole, on cells; also called CHO-moCD39; mouse CD39
T1 sequence (looked up): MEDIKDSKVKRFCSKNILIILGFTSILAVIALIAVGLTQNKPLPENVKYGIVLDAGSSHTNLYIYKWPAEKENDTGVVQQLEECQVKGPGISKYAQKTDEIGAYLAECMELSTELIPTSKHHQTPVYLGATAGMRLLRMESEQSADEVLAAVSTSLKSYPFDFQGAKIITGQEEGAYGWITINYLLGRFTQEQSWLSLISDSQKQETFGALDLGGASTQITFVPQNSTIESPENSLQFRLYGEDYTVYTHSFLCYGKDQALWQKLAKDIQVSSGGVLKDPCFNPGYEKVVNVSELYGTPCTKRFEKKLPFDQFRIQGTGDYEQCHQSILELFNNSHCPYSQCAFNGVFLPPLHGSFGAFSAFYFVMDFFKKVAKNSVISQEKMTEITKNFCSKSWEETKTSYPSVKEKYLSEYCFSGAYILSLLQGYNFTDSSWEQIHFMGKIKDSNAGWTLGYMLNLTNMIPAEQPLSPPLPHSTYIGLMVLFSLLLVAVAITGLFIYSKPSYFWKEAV
Assay: flow cytometry titration on CHO cells expressing murine CD39 [panel CHO-moCD39]
Protocol: Cells were incubated with various concentration of unlabeled anti-CD39 antibody from 30 μg/ml to 5×10⁻⁴ μg/ml, for 30 minutes at 4° C. After washes, cells were incubated with Goat anti-mouse H+L labeled secondary antibody for 30 min at 4° C.

binding result: no binding
B1: antibody I-394 (antibody, human IgG1, kappa, V domains shown)
VH: EVQLQQSGPELVKPGASVKMSCKASGYTFTDYNMHWVKQSHGRTLEWIGYIVPLNGGSTFNQKFKGRATLTVNTSSRTAYMELRSLTSEDSAAYYCARGGTRFAYWGQGTLVTVSA
VL: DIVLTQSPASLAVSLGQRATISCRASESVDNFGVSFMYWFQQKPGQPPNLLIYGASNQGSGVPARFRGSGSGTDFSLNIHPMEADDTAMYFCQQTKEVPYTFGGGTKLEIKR
notes: The hybridoma-derived mouse form was used in early screening
